According to the RNAGym collection of RNA variant scans (doi:10.1073/pnas.2313332121):

B1: TPR t1 (parent)
chain: GACCAAUCUGCCCUCAGAGCUCGAGAACAUCUUCGGAUGCAGAGGAGGCAGGCUUCGGUGGCGCGAUAGCGCCAACGUCCUCAACCUCCAAUGCAUCCCACCACAUGAUGAUGCCUGAAGAGCCUUGGUUUUUUG

Variants of: B1
Assay: polymerase ribozyme fitness, log enrichment relative to wild type (log ratio); higher = more active; in vitro selection for triplet polymerase activity
Summary of the method: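 Both subunits of a heterodimeric triplet polymerase ribozyme were given their own mutant library, built by PCR and transcribed. Each library was annealed with a biotinylated primer, the partner subunit and triplets, incubated frozen at −7 °C, and its extended constructs gel-excised, captured on streptavidin beads and amplified by RT-PCR, all in one round done in triplicate. Fitness is the logarithm of genotype enrichment relative to wild-type enrichment, with replicates averaged by inverse-variance weighting. That logarithm is base 2, and Illumina-sequenced genotypes needed ≥10 input reads and ≥1 read per output.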

Row | Variant | polymerase ribozyme fitness (log ratio)
1 | C12A C22A U59A G61C | -5.61
2 | C11U G63U A84U C89U | -2.9
3 | C12A A41G | -0.758
4 | C11U C82G C102A U112A G120C U125G | -5
5 | C11U C49G A74U C123G | 0.499
6 | C11U U55C G61A A121G | 1.39
7 | C11U C31U | -4.93
8 | C12A C49G U109C A111U | -6.35
9 | C12A G65U G110A U131G G135U | -7.22
10 | C12A A18U C56U A68C C79U C115U A118C U131C | -6.43
11 | C12A C31A | -6.73
12 | C12A C31U | -4.6
13 | C11U G135A | -1.27
14 | C11U G135U | -1.81
15 | C11U G47A G48A | -2.36
16 | C11U G17A | -3
17 | C12A C85A | -2.59
18 | C11U G17A C64U A83C A84C A119G | -0.999
19 | C11U C72U | -0.485
20 | C11U G36A C101U | -4.98
21 | C11U C82U | -1.45
22 | C12A G48U G71C | -1.56
23 | C12A C62A U112A C123G | -1.09
24 | C12A A83U U106G | -2.32

Row | Variant | polymerase ribozyme fitness (log ratio)
25 | C11U G63C | -1.64
26 | C12A C70A | -2.05
27 | C11U U21C C82G | -0.576
28 | C12A C15A U132A | -3.86
29 | C11U G47U C62U G71U C82A A95U | -2.79
30 | C12A C73A G120C A121U | 2.42
31 | C12A G42A C70U U96A G135C | -4.85
32 | C12A C86U | -0.885
33 | C12A G61U C79A | -1.28
34 | C11U C53U C73U C85A A121G C123G U126G U129C U130A | -3.11
35 | C12A C114A | -1.3
36 | C12A C114U | -1.85
37 | C12A A46C U59A | -0.649
38 | C11U C62A | -1.39
39 | C11U C28G C85A C104U G113C | -6.42
40 | C12A A37G U55G | -0.496
41 | C11U G107A | -6.13
42 | C11U U78A U87A C99U C115A | -4.73
43 | C12A C28G G44A | -4.91
44 | C11U C40G C53U C73G C79A C86U | -4.32
45 | C12A A121G | 1.96
46 | C12A C13G G45C G63A A119U C124A U132A | 0.867
47 | C12A G61U C98U U125A | -1.77
48 | C11U C115A | -0.908

Row | Variant | polymerase ribozyme fitness (log ratio)
49 | C11U G57A G58U G63U G77U C82G U106A | -3.25
50 | C11U C53U G69U A75U A84G | -1.1
51 | C12A A16G U81C G120C | 0.152
52 | C12A C56G A84U | -1.85
53 | C11U C49G | -1.44
54 | C12A G17A G61U | -4.75
55 | C12A G36C G60A | -1.66
56 | C11U U106A | -0.58
57 | C11U U92C G127A | -3.76
58 | C11U G60A U78C A95U U112A U116G | -3.18
59 | C11U C49G A95C | -2.54
60 | C11U C56A | -0.322
61 | C11U C56G | -1.1
62 | C12A A43U C56A | -2.54
63 | C12A A26C C56U G69A C85A | -7.09
64 | C12A A75G C114A | -3.82
65 | C12A A111U | -2.77
66 | C12A A111C | -0.641
67 | C11U C79U U81C C94A G120U | -4.75
68 | C11U G48C | -1.61
69 | C12A C62A U78G | -2.28
70 | C12A C22A A46U C79U | -6.1
71 | C12A C88G G128U U129A | -4.77
72 | C12A G23A G77U A119G | -5.67

Row | Variant | polymerase ribozyme fitness (log ratio)
73 | C12A G48U C102A A118G | -4.24
74 | C12A C20A | -2.37
75 | C12A C20U | -0.43
76 | C11U C114A | -1.22
77 | C12A G61U | -0.581
78 | C12A G61A | -0.687
79 | C12A A37C C40U G47A C73A | -4.88
80 | C12A G36A G61A U92A C123U | -3.77
81 | C12A C15G C53U C88U U112A G113U C123A U129C | -3.91
82 | C12A G52U G57U C64U C72U A105U | -3.63
83 | C11U G69A A84C | -2.03
84 | C11U C28A | -3.2
85 | C11U C28U | -1.61
86 | C11U C97U G113A | -1.74
87 | C12A C49U C70G | -4.56
88 | C12A A43C C53U | -2.86
89 | C12A A50U C70A | -3.58
90 | C12A C101U | -0.736
91 | C11U G48U G57U G61C C89U U106A | -3.19
92 | C11U C53U C62U G110A U129A | -4.11
93 | C11U C28U G45U G61U A84U C101A | -5.59
94 | C11U G65U C82U C104A U112A | -6.27
95 | C11U G61U U96A | -1.65
96 | C12A G36A U54A G57C C97A | -4.92

Row | Variant | polymerase ribozyme fitness (log ratio)
97 | C12A A43G C70A U81A G120U | -5.53
98 | C11U G39U A43G | -3.16
99 | C12A C28A G39C A111C G122A | -5.3
100 | C12A G36C U55G C72U U96G | -4.76
101 | C11U G61A A105G U106A | -0.0724
102 | C11U G52A C94G C104A A121G | -2
103 | C12A C22G G36U U116C G120U | -3.27
104 | C12A C89A | -1.87
105 | C11U G110U | -1.5
106 | C11U G110A | -1.63
107 | C11U G110C | -2.8
108 | C11U U78C C94U | -1.61
109 | C12A C31U G35A C104G C115U | -6.08
110 | C11U U59A C73A A91G A118U | -2.19
111 | C12A C15A G47U C62U U78C A83U G120C U133A | -2.07
112 | C11U C64A | -4.93
113 | C12A C13U G39U | -0.844
114 | C11U G120A U129G | -1.66
115 | C12A A50U G61C U78C C85U C124U | -6.64
116 | C12A C13U G71A G93A | -0.733
117 | C11U C22U U55C C56U A66U | -6.04
118 | C12A C89G C114A | -4.11
119 | C11U C89U C99U A121U U131A | -1.82
120 | C12A C53G U92C | -1.45

Row | Variant | polymerase ribozyme fitness (log ratio)
121 | C11U C22U C40G | -4.75
122 | C12A C13A | -1.97
123 | C12A C13G | -0.617
124 | C11U C40G C53U C62U C73G C79A C86U | -4.3
125 | C12A C56A C123U U131G | 0.231
126 | C12A C123U | 0.76
127 | C12A C20A G63A | -3.86
128 | C12A A27U | -3.57
129 | C12A A66C U78A | -2.43
130 | C12A G69U G128C | -1.9
131 | C12A A26U G44C C102U C123G | -7.51
132 | C12A A41C U92G A111G | -2.42
133 | C12A C13G G45C A119U C124A U132A | 0.6
134 | C12A C15U C73A C79U C86A C115U | -3.16
135 | C12A A27G G71U G93A | -6.11
136 | C11U G44C A46U | -2.61
137 | C12A C49U G113C U133C | -3.24
138 | C12A A91C U106A G117U | -5.61
139 | C11U G77A | -1.92
140 | C11U G39C U59C U81A A84G | -3.33
141 | C11U U96A | -1.94
142 | C12A A43C G61U | -0.92
143 | C11U U116C | -1.29
144 | C12A C124U | 0.853

Row | Variant | polymerase ribozyme fitness (log ratio)
145 | C12A C124G | 1.95
146 | C12A C124A | 1.83
147 | C12A C15A C73U C82U | -3.66
148 | C11U G19A C49U C56U A66U C114U | -2.83
149 | C12A A18G C20U A37U A50C C64U U92A | -4.28
150 | C12A A16G G36U | -4.37
151 | C11U C53G C56U U87C G117U G120A G122A | -3.01
152 | C12A C49U U109A U116A C123G | -6.73
153 | C11U G35A A37U C124A U132A | -4.07
154 | C12A C22U G45U C49U A68C G120U | -7.43
155 | C12A A43U A46U G71U | -3.4
156 | C11U G19U C20A C104U G120U | -4.29
157 | C12A C72A G120C | 1.29
158 | C11U G58A U126G | -2.59
159 | C11U G35U A111U G122C | -6.28
160 | C12A G47A C72G G93A G135U | -4.39
161 | C11U C104U | -1.3
162 | C12A G48C C72U G117U | -5.59
163 | C12A A16U C56G C124A | -0.00308
164 | C12A G45U | -1.63
165 | C12A A37U | -1.73
166 | C12A A37G | -0.967
167 | C12A C31U A83C | -5.06
